Measurements taken from patent US20100056764A1.
“And” between values parts separate entries of the source, which are not always exact repeats. Equal entries are not always repeated. Where two headings read alike, the source gives them in different places.

Columns and labels:
[1] = target: human NKG2D (hNKG2D) on the cell surface (human) (UniProt P26718); experiment: flow cytometry blocking assay on NKG2D/DAP10-expressing BaF/3 cells: pre-incubation with the antibody, then 1 µg MICA-Fc (hFc-MICA, m12, for ON72 according to paragraph 390); y axis % remaining MICA-Fc binding
[2] = target: human NKG2D (hNKG2D) on the cell surface (human) (UniProt P26718); experiment: flow cytometry, dose-response on NKG2D- and DAP10-expressing BaF/3 cells
[3] = target: human NKG2D (hNKG2D) on the cell surface (human) (UniProt P26718); experiment: flow cytometry, NKG2D/DAP10 BaF/3 cells pre-incubated with antibody, then 1 µg hFc-MICA (competitor)
[4] = target: human NKG2D (hNKG2D) on the cell surface (human) (UniProt P26718); experiment: flow cytometry, dose-response on NKG2D- and DAP10-expressing BaF/3 cells, y axis % of max binding
[5] = target: recombinant NKG2D-Fc protein (R&D Systems), immobilized on a Biacore CM5 chip (human) (UniProt P26718); experiment: SPR (Biacore), NKG2D-Fc immobilized on CM5 chip, antibody in solution
[6] = target: human NKG2D (hNKG2D) on the cell surface (human) (UniProt P26718); experiment: flow cytometry, NKG2D-expressing cells pre-incubated with ON72, then recombinant 16F16 (competitor)
[7] = target: human NKG2D (hNKG2D) on the cell surface (human) (UniProt P26718); experiment: flow cytometry, NKG2D-expressing cells pre-incubated with ON72 (0.3 µg), then 16F16 IgG4 (0.3 µg, competitor); legend of FIG. 9A
[8] = target: human NKG2D (hNKG2D) on the cell surface (human) (UniProt P26718); experiment: cell-based or functional assay
[9] = target: human NKG2D (hNKG2D) on the cell surface (human) (UniProt P26718); experiment: flow cytometry, NKG2D/DAP10 BaF/3 cells pre-incubated with antibody, then 1 µg hFc-MICA (competitor); remark: listed apart in the source

Chain of recombinant NKG2D-Fc protein (R&D Systems), immobilized on a Biacore CM5 chip (human) (P26718 78-216): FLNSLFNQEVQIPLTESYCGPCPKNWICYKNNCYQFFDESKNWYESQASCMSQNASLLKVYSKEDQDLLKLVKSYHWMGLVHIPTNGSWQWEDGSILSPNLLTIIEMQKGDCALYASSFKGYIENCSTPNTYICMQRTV
Chain of human NKG2D (hNKG2D) on the cell surface (human) (P26718 whole entry T72A): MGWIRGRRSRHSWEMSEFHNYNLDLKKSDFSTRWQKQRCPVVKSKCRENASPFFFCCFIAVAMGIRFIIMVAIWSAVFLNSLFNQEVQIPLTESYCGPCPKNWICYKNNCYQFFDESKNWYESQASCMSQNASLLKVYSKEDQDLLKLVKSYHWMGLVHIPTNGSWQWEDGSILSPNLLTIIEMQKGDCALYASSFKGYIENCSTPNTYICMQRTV

IC50 (read off the curve) [1]: 0.02 nM
EC50 [2]: 0.062 µg/mL and 0.048 nM
IC50 [3]: 0.02 nM
full blockade of 1 µg MICA-Fc (antibody concentration) [3]: 0.24 nM
EC50 (read off the curve) [4]: 0.06 nM
Kd [5]: 0.17 nM
koff [5]: 0.00011 s⁻¹
kon [5]: 960000 M⁻¹ s⁻¹
% of 16F16 binding blocked [6]: 82%
% of 16F16 binding prevented [7]: 85%
% proliferation of PBMC, stimulation CD3 0.1 + CD28 + ON72 (immobilized antibodies) [8]: 22.9%
% proliferation of PBMC, stimulation CD3 0.1 + ON72 (immobilized antibodies) [8]: 7.12%
% proliferation of PBMC, stimulation CD3 0.3 + CD28 + ON72 (immobilized antibodies) [8]: 40.1%
% proliferation of PBMC, stimulation CD3 0.3 + ON72 (immobilized antibodies) [8]: 28.4%
down-modulation of cell-surface NKG2D, NKG2D/DAP10 BaF/3 cells, overnight incubation [8]: 55%
internalization of NKG2D at 1 h, NKG2D+ lymphocytes in whole blood, 0.1 µg/ml [8]: 50 to 75%
internalization of NKG2D at 24 h, NKG2D+ lymphocytes in whole blood, 0.1 µg/ml [8]: 100%
IC50 [9]: 0.019 µg/mL
full blockade of 1 µg MICA-Fc (antibody concentration) [9]: 0.54 µg/mL
Substance: ON72, commercially available murine anti-hNKG2D monoclonal antibody (Beckman Coulter Inc.)
EC50 (µg/ml), inhibition of NK cell killing of ULPB3-expressing target cells (51Cr release) [8]: 0.065 µg/mL
